From US20250002564A1 (HOSPITAL FOR SICK CHILDREN, published 2025)
Residue numbers refer to the chain shown, from its start. Values joined by “and” are separate entries in the source; they are usually repeats but may differ in a detail not shown here. Identical values can stand only once.

B1: mAb 368 (antibody, V domains shown)
VH: QVQLVQSGAEVKKPGSSVKVSCKASGYTFTSYDINWVRQAPGQGLEWMGAIMPMFGTANYAQKFQGRVTITADESTSTAYMELSSLRSEDTAVYYCARGSSGYYYGWGQGTLVTVSS
VL: not shown
B2: mAb 128 (antibody, V domains shown)
VH: QVQLVQSGAEVKKPGASVKVSCKASGYTFTHYYMHWVRQAPGQGLEWMGIINPSSSSASYSQKFQGRVTMTRDTSTSTVYMELSSLRSEDTAVYYCARDGRYGSGSYPFDYWGQGTLVTVSS
VL: DIQMTQSPSSLSASVGDRVTITCRASQNISRYLNWYQQKPGKAPKLLIYDASNLETGVPSRFSGSGSGTDFTLTISSLQPEDFATYYCQQANGFPPTFGQGTKLEIKR
B3: mAb 158 (antibody, V domains shown)
VH: QVQLVQSGAEVKKPGASVKVSCKASGYTFTGYYMHWVRQAPGQGLEWMGWINPLNGGTNFAPKFQGRVTMTRDTSTSTVYMELSSLRSEDTAVYYCARDPGGSYSNDAFDIWGQGTLVTVSS
VL: B2 VL with N28S, T56S, G93S, P96L, Q100G, L104V, E105D
notes: also called IgG 158; Antibody 158
B4: mAb 56 (antibody, V domains shown)
VH: QVQLVQSGAEVKKPGASVKVSCKASGYTFTSYGISWVRQAPGQGLEWMGWISAYNGNTNYAQKLQGRVTMTRDTSTSTVYMELSSLRSEDTAVYYCARDIGPIDYWGQGTLVTVSS
VL: B2 VL with N28G, R31S, N34A, E55Q, T56S, G93S, P96S, L104V
notes: also called IgG 56; Antibody 56
B5: mAb 82 (antibody, V domains shown)
VH: QVQLVQSGAEVKKPGASVKVSCKASGGSFSTSAFYWVRQAPGQGLEWMGWINPYTGGTNYAQKFQGRVTMTRDTSTSTVYMELSSLRSEDTAVYYCARSRALYGSGSYFDYWGQGTLVTVSS
VL: B2 VL with N28V, R31N, N34A, A91S, N92F, G93S, F94P, K103R
notes: also called IgG 82; Antibody 82
B6: mAb 349 (antibody, V domains shown)
VH: EVQLLESGGGLVQPGGSLRLSCAASGFTFSNYGMHWVRQAPGKGLEWVSGISSAGSITNYADSVKGRFTISRDNSKNTLYLQMNSLRAEDTAVYYCAGNHAGTTVTSEYFQHWGQGTLVTVSS
VL: DIQMTQSPSSLSASVGDRVTITCRASQSISSWLAWYQQKPGKAPKLLIYDTSNLETGVPSRFSGSGSGTDFTLTISSLQPEDFATYYCQQSYTTPWTFGQGTRLEIKR
notes: also called IgG 349; Antibody 349
B7: mAb 160 (antibody, V domains shown)
VH: QVQLVQSGAEVKKPGASVKVSCKASGYTFTGHDMHWVRQAPGQGLEWMGIINPSGGSTSYAQKFQGRVTMTRDTSTSTVYMELSSLRSEDTAVYYCARANSLRYYYGMDVWGQGTMVTVSS
VL: B6 VL with I29V, D50A, T51A, N53S, E55Q, T56S, S91G, W96Y, R103K
notes: also called IgG 160; Antibody 160
B8: mAb 192 (antibody, V domains shown)
VH: QVQLVQSGAEVKKPGSSVKVSCKASGGTFSSYAISWVRQAPGQGLEWMGWINPNSGGANYAQKFQGRVTITADESTSTAYMELSSLRSEDTAVYYCSTYYYDSSGYSTDYWGQGTLVTVSS
VL: DIVMTQSPLSLPVTPGEPASISCRSSQSLLHSNGYNYLDWYLQKPGQSPQLLIYAASSLQSGVPDRFSGSGSGTDFTLKISRVEAEDVGVYYCMQALQTPYTFGQGTKLEIKR

Legend:
[1] = biological target: T1, SARS-CoV-2 Spike on wild-type pseudotyped virus (PsV) (SARS-CoV-2, UniProt P0DTC2 14-1273); assay: cell-based or functional assay
[2] = biological target: T1, SARS-CoV-2 Spike on wild-type …; assay: cell-based or functional assay; remark: listed apart in the source

| Binder | IC50 SARS-CoV2 PsV (IgG) [1] [µg/mL] | Median IC50 [2] |
| --- | --- | --- |
| B1 | > 50 | > 50 µg/mL and > 333 nM |
| B2 | > 50 | > 50 µg/mL and > 333 nM |
| B3 | > 50 | > 50 µg/mL and > 333 nM |
| B4 | > 50 | > 50 µg/mL and > 333 nM |
| B5 | 1.6 | 1.6 µg/mL and 11 nM |
| B6 | > 50 | > 50 µg/mL and > 333 nM |
| B7 | > 50 | > 50 µg/mL and > 333 nM |
| B8 | > 50 | > 50 µg/mL and > 333 nM |
